Values quoted from earlier work, collected in publication PMC2883863.

Assays:
Cys30 = Cys30 (UniProt position 49, FFSFFCPHCYQ); conditions: not stated (quoted literature value for E. coli DsbA)
Cys32 = Cys32 (UniProt position 33, FWAEWCGPCKM); conditions: not stated (quoted literature value for E. coli thioredoxin)

Row | Substance | pKa (Cys30) | pKa (Cys32)
1 | Thiol:disulfide interchange protein DsbA (Escherichia coli) | 3.5 | –
2 | Thioredoxin 1 (Escherichia coli) | – | 7.5
